Legend:
pancreatic β-cells [1] = assay: Surface ratio of β-cells to α-cells in STZ mice administered synthetic polypeptides A-C; format: in vivo, C57BL/6 mouse; conditions: STZ mouse, 25 nmol/kg body weight i.p. twice daily for eight weeks; vs saline; FIG. 8
Method: In the sixth embodiment, the action of synthetic polypeptides A-C on Type-1 diabetes STZ model mice was confirmed in the same manner as the third embodiment.
Firstly a 7-week old C57BL/6 mouse (body weight approximately 18-20 g) was fasted for 18 hours from day 0 and then streptozocin dissolved in saline (100 mg/kg body weight) was administered into the interperitoneal region and free feeding was immediately allowed. […] The serum blood-glucose level was measured on the seventh day. A fasting blood glucose level of greater than or equal to 150 mg/dL was determined as diabetes and the experiment described hereafter was conducted. STZ mice determined to have diabetes were administered into the interperitoneal region twice daily the polypeptide A-C (25 nmol/kg body weight) dissolved in saline for eight weeks from the seventh day.
The pancreas of the STZ mice was removed and after fixing the tissue with paraformaldehyde, the tissue sample preparation office at University of Tsukuba was employed to prepare a paraffin-embedded section. […] The section was thereafter mounted on a fluorescence photobleaching prevention agent (VECTASHILD Mounting Medium; Vector) and observed through a fluorescence microscope (BZ-8000; KEYENCE) to measure the surface ratio (β-cells/α-cells) of β-cells to α-cells. […]

[2] = tested on: type-2 diabetes model KK/Ay mouse; assay: Intravenous glucose tolerance test after adenoviral expression of mCF266 in KK/Ay mouse; format: in vivo; conditions: adenoviral vector i.v. 6×10^9 PFU/mL, after four days, vs Ad GFP
Excerpt: In the second embodiment, an adenoviral vector expressing mCF266 was used to confirm the action of mCF266 with respect to a KK/Ay mouse which is a type-2 diabetes model mouse.
Firstly an adenoviral vector (prepared using ViraPower which is a tradename of Invitrogen) constructed by linking mCF266 to a CAG promoter was intravenously injected at a concentration of 6×10^9 PFU/mL into the caudal vein of a 18-week old KK/Ay mouse (body weight approximately 47-51 g) given a high-fat high-sucrose diet. After four days, an intravenous glucose tolerance test (i.v. GTT) was performed by periodically taking blood and measuring the blood-glucose level of the serum and the insulin level.
Consequently expression of mCF266 is shown to induce insulin secretion.

pancreatic β-cells [3] = assay: Surface area and number of β-cells (islets of Langerhans) in mCF266 transgenic mice; format: in vivo, mouse
Method: Firstly, an mCF266 expression vector (pCAGGS-mCF266) was constructed by linking mCF266 to a CAG promoter and linearized. The University of Tsukuba Laboratory Animal Resource Center was employed to produce a transgenic mouse. The introduced gene was confirmed using PCR and southern blotting and mating for five generations with C57BL/6 mice was conducted.
The pancreas of the transgenic mice was removed and after fixing the tissue with paraformaldehyde, the tissue sample preparation office at University of Tsukuba was employed to prepare a paraffin-embedded section. After the section was removed from paraffin, antigen activation was performed for 30 minutes at room temperature using 0.1% Triton X-100 and then blocking was performed for one hour at room temperature using 5% skim milk. After blocking, a primary antibody reaction was performed overnight at 4° C. using polyclonal anti-insulin guinea pig antibody (Daco) and polyclonal anti-glucagon rabbit antibody (Daco). The section was washed using Tris-buffered saline containing 0.1% Tween20 (TBST). […] The section was thereafter mounted on a fluorescence photobleaching prevention agent (VECTASHILD Mounting Medium; Vector) and observed through a fluorescence microscope (BZ-8000; KEYENCE) to measure the surface area of islets of Langerhans stained by insulin relative to the pancreas surface area on the section. […]

[4] = tested on: type-1 diabetes STZ model mouse; assay: Oral glucose tolerance test after adenoviral expression of hCF266(27V) in STZ model mouse; format: in vivo, C57BL/6 mouse; conditions: adenovirus i.v. 1×10^9 PFU/mL on day 7, OGTT on twelfth day, vs Ad GFP or Ad (−), FIG. 5
Method: In the fourth embodiment, an adenoviral vector expressing hCF266(27V) was used to confirm the action of hCF266(27V) with respect to an STZ model mouse which is a type-1 diabetes model mouse.
Firstly a 7-week old C57BL/6 mouse (body weight approximately 18-20 g) was fasted for 18 hours from day 0 and then streptozocin dissolved in saline (100 mg/kg body weight) was administered into the interperitoneal region and free feeding was immediately allowed. From the following day, after fasted for 18 hours the same amount of streptozocin was re-administered on the second day into the interperitoneal region and free feeding was immediately allowed. The serum blood-glucose level was measured on the seventh day. A fasting blood glucose level of greater than or equal to 150 mg/dL was determined to be diabetes and the experiment described hereafter was conducted. On the same day, a recombinant adenovirus (prepared using ViraPower which is a tradename of Invitrogen) constructed by linking hCF266(27V) to a CAG promoter was intravenously injected at a concentration of 1×10^9 PFU/mL into the caudal vein of a STZ mouse determined to be suffering diabetes. On the twelfth day, an oral glucose tolerance test (OGTT) was performed by periodically taking blood and measuring the blood-glucose level of the serum and the insulin level. […]

pancreatic β-cells [5] = assay: Surface ratio of β-cells to α-cells in pancreas sections of STZ mice given hCF266(27V) adenovirus; format: in vivo, C57BL/6 mouse; conditions: STZ mouse, adenoviral expression; vs Ad GFP or Ad (−); FIG. 6
Method: Firstly a 7-week old C57BL/6 mouse (body weight approximately 18-20 g) was fasted for 18 hours from day 0 and then streptozocin dissolved in saline (100 mg/kg body weight) was administered into the interperitoneal region and free feeding was immediately allowed. From the following day, after fasted for 18 hours the same amount of streptozocin was re-administered on the second day into the interperitoneal region and free feeding was immediately allowed. The serum blood-glucose level was measured on the seventh day. A fasting blood glucose level of greater than or equal to 150 mg/dL was determined to be diabetes and the experiment described hereafter was conducted. On the same day, a recombinant adenovirus (prepared using ViraPower which is a tradename of Invitrogen) constructed by linking hCF266(27V) to a CAG promoter was intravenously injected at a concentration of 1×10^9 PFU/mL into the caudal vein of a STZ mouse determined to be suffering diabetes. On the twelfth day, an oral glucose tolerance test (OGTT) was performed by periodically taking blood and measuring the blood-glucose level of the serum and the insulin level.
The pancreas of the STZ mice was removed and after fixing the tissue with paraformaldehyde, the tissue sample preparation office at University of Tsukuba was employed to prepare a paraffin-embedded section. […]

MIN6 cells = assay: Glucose-stimulated insulin secretion (GSIS) in MIN6 cells stimulated with culture supernatant of CF266-transfected HEK293T cells; format: cell-based, murine; conditions: culture supernatant of transfected HEK293T cells : KRBH buffer 1:1 (v/v), stimulated one hour, vs Mock, FIG. 2
Method: In Embodiment 1, an action was confirmed with respect to MIN6 cells using a culture supernatant of a HEK293T cell strain originating from fetal kidney epithelial cells transfected with CF266.
Firstly, HEK293T cells subcultured in DMEM media enriched with 5% FCS and an antibiotic (penicillin 100 U/mL, streptomycin […]) were plated onto a 10 cm dish at a concentration of 1×10^6 cells/dish. On the following day, HEK292T cells were transfected with an expression vector for mCF266 (pCAGGS-mCF266) using a FuGENE6 (Roche) and mCF266 was forcibly expressed. After 24 hours, the media was exchanged for Opti-MEM media and after a further 24 hours, a culture supernatant was recovered.
Next, MIN6 cells subcultured in DMEM media (high glucose, Invitrogen) enriched with 15% FCS, an antibiotic (penicillin 100 U/mL, streptomycin […]) and 2-mercaptoethanol were plated onto a 24-well plate at a concentration of 3×10^5 cells/well. On the following day, 0.5 mL/well KRBH buffer solution (2.8 mM glucose) was added and pre-culturing was conducted for 30 minutes. Then 0.5 mL/well of a mixed solution of the above culture supernatant and KRBH buffer solution (1:1(v/v)) was added and stimulated for one hour. Then glucose-stimulated insulin secretion (GSIS) was measured for the MIN6 cells. […]

## ALYCMLISIQALLKGPLMC (Human) [polypeptide A, 19 amino acid fragment, 98-116th amino acids of the hCF266(27V) polypeptide]
Pancreatic β-cells [1]
  surface ratio (β-cells/α-cells) β-cells to α-cells: excellent

B1: mCF266: Murine DNA SEQ. ID. No. 1 encoding membrane protein Tm4sf20; tested as transfected-cell supernatant, adenoviral vector and transgene (protein)
chain: MTCCEGWTSCNGFSLLILILLGVVINCIPLGISLVEADSTSQNPISCYEWWFPGIIGAGLMAIPATTMSLAARKRACCNNKTGMFLSSLFSVITVVGAVYCMLVSLQALLEGPLICNTQANSTVTCEFSLKNLSKFDPESFNLLWFFNGTCVSPTDFKNPTINNMVSNWKIPNSNSEEDRHRIFHFSVFMSLLLVGILELLFGLSQILIGFLGCLCGVSQRRSQIV
modifications: Mouse
notes: ID; No. 1 encoding membrane protein Tm4sf20; tested as transfected-cell supernatant, adenoviral vector and transgene
[2]; FIG. 3A
  blood-glucose level (i.v. GTT): only a slightly low tendency
[2]; FIG. 3B
  insulin value (i.v. GTT): significantly higher
Pancreatic β-cells [3]; transgenic mice hetero (+/−) or homo (+/+) vs wild-type (normalized to 1), FIG. 7B
  number of β-cells: conspicuously increased
Pancreatic β-cells [3]; transgenic mice hetero (+/−) or homo (+/+) vs wild-type, FIG. 7A
  surface area of β-cells: conspicuously increased

B2: hCF266(27V): Human DNA SEQ. ID. No. 4 encoding TM4SF20, 27th amino acid valine; tested as transfected-cell supernatant and adenoviral vector (protein)
chain: MTCCEGWTSCNGFSLLVLLLLGVVLNVIPLIVSLVEEDQFSQNPISCFEWWFPGIIGAGLMAIPATTMSLTARKRACCNNRTGMFLSSLFSVITVIGALYCMLISIQALLKGPLMCNSPSNSNANCEFSLKNISDIHPESFNLQWFFNDSCAPPTGFNKPTSNDTMASGWRASSFHFDSEENKHRLIHFSVFLGLLLVGILEVLFGLSQIVIGFLGCLCGVSKRRSQIV
modifications: Human
notes: ID; No. 4 encoding TM4SF20, 27th amino acid valine; tested as transfected-cell supernatant and adenoviral vector
[4]
  blood glucose level (OGTT): significantly reduced
Pancreatic β-cells [5]
  surface ratio (β-cells/α-cells) of β cells to α cells: significantly increased
MIN6 cells
  glucose-stimulated insulin secretion (GSIS): excellent action

Reference: patent publication US20100168026A1, “INSULIN SECRETION INDUCER, AND ACCELERATOR FOR INCREASING THE NUMBER OF PANCREATIC BETA-CELLS” (priority 2007, published 2010)
